Test results reported in patent US20250163138A1 (Alexion, published 2025).

Key:
human serum albumin = biological target: T1, human serum albumin (human, UniProt P02768 25-609); assay: BLI (Octet HTX), VHH-His on Penta-His sensors, 100 nM albumin
T1 construct: also called HSA; human albumin
Description: VHH sequences were first analyzed by SDS-PAGE and Coomassie staining to determine approximate concentration relative to a known standard. Supernatant concentrations were then normalized and subjected to biolayer interferometry on an Octet HTX (Pall/ForteBio). Penta-His sensors were exposed to kinetics buffer for 60 seconds to establish baseline measurements. The sensors were then loaded with VHH-His containing supernatants for 300 seconds before a second baseline was established in kinetics buffer over 120 seconds. Tips were then incubated with 100 nM HSA or CSA in kinetics buffer for 600 seconds and dissociation measured over an additional 600 seconds.

[1] = biological target: T2, human complement protein C5 (human, UniProt P01031 19-1676); assay: SPR (Biacore), pH 6.0
T2 construct: Native C5 is a two-chain protein made from one precursor; also called hC5; human C5

[2] = biological target: T3, cynomolgus monkey (cyno) complement protein C5 (cynomolgus monkey, UniProt A0A2K5U1T1 19-1676); assay: SPR (Biacore), pH 6.0
T3 construct: also called cC5; cyno C5

[3] = biological target: T2, human complement protein C5; assay: SPR (Biacore), pH 7.4

Binder | binding result (human serum albumin) | further results
HAS038 (VHH, anti-albumin VHH-His) VHH: QVQLVESGGGLVQPGGSLRLSCTGSGHSFSTYTVGWFRQAPGEERKFVASISWSGEVTLYGDSVKGRFTISRDNRKKTVYLQMHSLKPEDSAIYYCAAKRGGRPTDSSDDYFYWGQGTQVTVSS | binds | 
HAS044 (VHH, anti-albumin VHH-His) VHH: QVQLVESGGGLVQAGGSLRLSCAASGRTFSSYAIGWFRQAPGKAREFVARVSTIAGDTDYADSVKGRFTISRDNAKNTVYLQMNSLKPEDTAVYYCAADSYNVRLVTGEADYWGEGTQVTVSS | binds | 
HAS077 (VHH, anti-albumin VHH-His) VHH: QVQLVESGGGLVQAGGSLRLSCAASGRTFSSYAIGWFRQAPGKAREFVARVSTIAGDTDYADSVKGRFTISRDNAKNTVYLQMNSLKPEDTAVYYCAADSYNVRLGTGEADYWGEGTQVTVSS | binds | 
HAS079 (VHH, anti-albumin VHH-His) VHH: EVQLVESGGGLVQAGDSLRLSCAASGFTFSNYAIGWFRQAPGKAREFVARVSTIAGDTDYANAVKGRFTISRDNAKNTVYLQMNSLKPDDTAVYYCAAESYNVRLVTGEADYWGEGTQVTVSS | binds | 
HAS020 (VHH, anti-albumin VHH-His) VHH: QVQLVESGGGLVQAGGSLRLSCAASGRTFGSDAAGWFRQASGKEREFVASISWSGGYTYYADSVKGRFTISSDNVKNTVYLQMNSLTPEDTAVYFCATGNRYSDYRISLVTPSQYEYWGQGTLVTVSH | binds | 
HAS091 (VHH, anti-albumin VHH-His) VHH: QVQLVESGGGLVQAGGSLRLSCAASGRTFGSDAAGWFRQASGKEREFVASISWSGGYTYYADSGTGRFTISSDNVKNTVYLQMNSLTPEDTAVYFCATGNRDSDYRISLVTPSQYEYWGQGTQVTVSH | binds | 
HAS093 (VHH, anti-albumin VHH-His) VHH: QVQLVESGGGLVQAGGSLRLSCAASGRTFGSDAAGWFRQASGKEREFVASISWSGGYTYYADSGKGRFTISSDNVKNTVYLQMNSLTPEDTAVYFCATGNRYSDYRISLVTPSQYDYWGQGTQVTVSH | binds | 
HAS096 (VHH, anti-albumin VHH-His) VHH: QVQLVESGGGLVQAGGSLRLSCAASGRTFGSDAAGWFRQASGKEREFVASISWSGGYTYYADSVKGRFTSSSDNVKNTVYLQMNSLTPEDTAVYFCATVNRYSDYRISLVTPSQYEYWGQGTQVTVSH | binds | 
HAS081 (VHH, anti-albumin VHH-His) VHH: QVQLVESGGGLVQAGGSLRLSCAASGRTFSSDAAGWFRQASGKEREFVAAISWSGNYTYSADSVKGRFTISSDNVKNTVYLQMNSLKPEDTAVYLCAAGNRYSDYRISLVTPSQYEYWGQGTQVTVSH | binds | 
HAS080 (VHH, anti-albumin VHH-His) VHH: QVRLAESGGGRVQAGESLRLSCVASGRTFSNDAAGWFREASGKEREFVASISWSGNYTYYADSVKGRFTISEDNVKNTVYLQMTSLKPEDTAVYYCAAGNRYSDYRISLVTPRLYEYWGQGTQVTVSH | binds | 
CRL0499 (bispecific antibody, anti-albumin VHH / (G4S)3 / anti-C5 VHH fusion, purified by Protein A; also called CRL0499 (HSA/C5)) EVQLLESGGGLVQPGGSLRLSCAASGFTFRSFGMSWVRQAPGKGPEWVSSISGSGSDTLYADSVKGRFTISRDNSKNTLYLQMNSLRPEDTAVYYCTIGGSLSRSSQGTLVTVSSGGGGSGGGGSGGGGSEVQLVESGGGLVQPGGSLRLSCAASGRAHSDYAMAWFRQAPGQEREFVAGIGWSGGDTLYADSVRGRFTNSRDNSKNTLYLQMNSLRAEDTAVYYCAARQGQYIYSSMRSDSYDYWGQGTLVTVSS |  | Kd [1]: 0.448 nM; koff [1]: 0.00112 s⁻¹; kon [1]: 2.51e+06 M⁻¹ s⁻¹; Kd [2]: 2.02 nM; koff [2]: 0.00388 s⁻¹; kon [2]: 1.92e+06 M⁻¹ s⁻¹; Kd [3]: 0.15 nM; koff [3]: 0.000332 s⁻¹; kon [3]: 2.22e+06 M⁻¹ s⁻¹
